Assay [1] has as its target Wild type IRF5 (222-467) (human) (UniProt Q13568). As to the kind of experiment: TR-FRET IRF5 dimerization inhibition, WT (222-467), peptide titrated.
In assay [2] the target is IRF5(222-467, S430D), S430D phosphomimetic construct of IRF5 (222-467) (human), Q13568.
Sequence of IRF5(222-467, S430D), S430D phosphomimetic construct of IRF5 (222-467) (human), Q13568 (Q13568 232-477 S440D limits assumed): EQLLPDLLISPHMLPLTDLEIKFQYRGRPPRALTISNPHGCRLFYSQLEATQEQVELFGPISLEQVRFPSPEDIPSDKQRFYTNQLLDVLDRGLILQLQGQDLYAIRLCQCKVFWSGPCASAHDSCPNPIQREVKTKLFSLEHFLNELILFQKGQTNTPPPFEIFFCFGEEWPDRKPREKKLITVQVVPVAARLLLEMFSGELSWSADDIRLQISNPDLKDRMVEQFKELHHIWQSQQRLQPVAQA

B1: FITC-Aha-…-NH2 (SEQ ID NO: 16) (peptide)
peptide: XIRLQISNPYLKFIPLKRAIWLIK
modifications: N-terminal FITC-Aha (fluorescein isothiocyanate on amino hexanoic acid), C-terminal amide (NH2)
B1: in assay [1], the IC50 stood at 46.5 µM.

B2: Ac-…-NH2 (SEQ ID NO: 23), control CPP designed not to bind IRF5 (peptide)
peptide: Ac-YLKFIPLKRAIWLIK-NH2
Molecule B2 gave an IC50 in assay [1] above 75 µM.

B3: Ac-…-NH2 (SEQ ID NO: 9) (peptide)
peptide: Ac-IRLQISNPDLKDLMVQWFKDGGPSSGAPPPS-NH2
Molecule B3 returned a 50% inhibitory concentration (IC50) in assay [1] of 1.4 µM.

B4: Ac-…-NH2 (SEQ ID NO: 8) (peptide)
peptide: Ac-KDLMVQWFKDGGPSSGAPPPS-NH2
For the molecule B4, the IC50 in assay [2] amounted to 1680 nM; in assay [1], 0.79 µM.

B5: Ac-…-NH2 (SEQ ID NO: 10) (peptide)
peptide: Ac-PFPPLPIGEEAPKDDMVRFFKDLHQYLNVV-NH2
Regarding B5, the IC50 in assay [1] is 0.35 µM.

B6: FITC-Aha-…-NH2 (SEQ ID NO: 17) (peptide)
peptide: XMIILIISFPKHKDWKVILVK
modifications: N-terminal FITC-Aha (fluorescein isothiocyanate on amino hexanoic acid), C-terminal amide (NH2)
Take B6: the 50% inhibitory concentration (IC50) in assay [1] is 5.3 µM.

B7: Ac-…-NH2 (SEQ ID NO: 14) (peptide)
peptide: Ac-MIILIISFPKHKDWKVILVK-NH2
With B7, the half-inhibitory concentration (IC50) in assay [1] is 18.6 µM.

The values are drawn from patent US20160009772A1, “CELL PENETRATING PEPTIDES WHICH BIND IRF5” (priority 2012, published 2016).
